# Measured values published in the nanobody polyreactivity screen of Harvey et al. (2022).
# Test: yeast display, Sf9 membrane polyspecificity reagent, FACS + sequencing; frameworks hold sequencing errors
# In short: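 Galactose induction of a Saccharomyces cerevisiae BJ5465 synthetic nanobody display library ran 36–48 hours. The cells were then stained for 1 hour at 4 °C with 10% biotinylated, detergent-solubilized Sf9 membrane reagent, pulled down on streptavidin microbeads and FACS-sorted into low and high (top ~1%) gates on expression and reagent-binding fluorescence. Labels for polyreactivity follow the gate of origin.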
row,Sequence,polyreactivity (PSR sort gate)
1,QVQLVESGGGLVQAGGSLRLSCAASGSTLYPYDMGWYRQAPGKERELVAAIDSGGSTNYADSVKGRFTISRDNAKNTVYLQMNSLKPEDTAVYYCATEILTAARDTVVYQFYLGYYYWGQGTQVTVSS,low polyreactivity
2,QVQLVESGGGLVQAGGSLRLSCAASGSTLYQYAMGWYRQAPGKERELVAAITKSGGRTYYADSVKGRFTISRDNAKNTVYLQMNSLKPEDTAVYYCNVVRGSYSSGGDYWGQGTQVTVSA,high polyreactivity
3,QVQLVESGGGLVQAGGSLRLSCAASGSTLYSYAMGWYRQAPGKERELVAAISIGGRTYYADSVKGRFTISRDNAKNTVYLQMNSLKPEDTAVYYCNKYYGPRTYLSAQGRSYGYWGQGTQVTVSS,high polyreactivity
4,QVQLVESGGGLVQAGGSLRLSCAASGSTLYTYAMGWYRQAPGKERELVAAISYTGGRTYYADSVKGRFTISRDNAKNTVYLQMNSLKPEDTAVYYCAARFKSVGYDYWGQGTQVTVSS,high polyreactivity
5,QVQLVESGGGLVQAGGSLRLSCAASGSTLYTYDMGWYRQAPGKERELVASISGSDGSTYYADSVKGRFTISRDNAKNTVYLQMNSLKPEDTAVYYCAVDSYQTGVYFYYVYWDFDLGYWGQGTQVTVSS,low polyreactivity
6,QVQLVESGGGLVQAGGSLRLSCAASGSTLYWNAMGWYRQAPGKERELVADISSTGRTYYADSVKGRFTISRDNAKNTVYLQMNSLKPEDTAVYYCNADYFFEFDYWGQGTQVTVSS,low polyreactivity
7,QVQLVESGGGLVQAGGSLRLSCAASGSTLYYNAMGWYRQAPGKERELVAAISWSGGSTYYADSVKGRFTISRDNAKNTVYLQMNSLKPEDTAVYYCAAELSSYYDYDYWGQGTQVTVSS,low polyreactivity
8,QVQLVESGGGLVQAGGSLRLSCAASGSTLYYNAMGWYRQAPGKERELVAAITSGGSTSYADSVKGRFTISRDNAKNTVYLQMNSLKPEDTAVSSCAAVFYRRFDYWGQGTQVTVSS,low polyreactivity
9,QVQLVESGGGLVQAGGSLRLSCAASGSTLYYYAMGWYRQAPGKERELVASITGSGGNTYYADSVKGRFTISRDNAKNTVYLQMNSLKPEDTAVYYCAKRHFYRHGAYGYWGQGTQVTVSS,high polyreactivity
10,QVQLVESGGGLVQAGGSLRLSCAASGSTLYYYAMGWYRQAPGKERELVASITKSGASTYYADSVKGRFTISRDNAKNTVYLLMNSLKPEDTAVYYCAADVGAIYDNAENGYWGQGTQVTVSS,low polyreactivity
11,QVQLVESGGGLVQAGGSLRLSCAASGSTNYPNAMGWYRQAPGKESELVARISRNGGSTYADSVKGRFTISRDNAKNTVYFQMNSLKPEDTEVYYCARSYASFSWLRTKEPYEYWGQGTQVTVSS,low polyreactivity
12,QVQLVESGGGLVQAGGSLRLSCAASGSTRLYAMGWYRQAPGKERELVAAIRSSGSSTYYADSVKGRFTISRDNAKNTVYLQMNSLKPEDTAVYYCNADRIRKGWRYDYWGQGTQVTVSS,high polyreactivity
13,QVQLVESGGGLVQAGGSLRLSCAASGSTSDDNTMGWYRQAPGKERELVAAITWSGGRTSYADSVKGRFTISRDNAKNTVYLQMNSLKPEDTAVYYCAADKSGRGLDYWGQGTQVTVSS,low polyreactivity
14,QVQLVESGGGLVQAGGSLRLSCAASGSTSDINAMGWYRQAPGKERELVAVITDSSNTDYADSVKGRFTISRDNAKNTVYLQMNSLKPEDTADDYCAADRDEPDPYDYWGQGTQVTVSS,low polyreactivity
15,QVQLVESGGGLVQAGGSLRLSCAASGSTSDPYGMGWYRQAPGKERELVAAISSNGDSTYYADSVKGRFTLSRDNAKNTVYLQMNSLKPEDTAVYYCAARILYSYHLYDYWGQGTQVTVSS,high polyreactivity
16,QVQLVESGGGLVQAGGSLRLSCAASGSTSGTNAMGWYRQAPGKERELVATISRRGGSTYYADSVKGRFTISRDNAKNTVYLQMNSLKQDYTAVYYCAARTYGYFLYDYWGQGTQVTVSS,high polyreactivity
17,QVQLVESGGGLVQAGGSLRLSCAASGSTSKYYAMGWYRQAPGKERELVAAITWSDVSTYYADSVKGRFTISRDNAKNTVYLQMNSLKPEDTAVYYCNAGYDYWGQGTQVTVSS,low polyreactivity
18,QVQLVESGGGLVQAGGSLRLSCAASGSTSLKNAMGWYRQAPGKERELVAAINSVGDTYYADSVKGRFTISRDNAKNTVYLQMNSLKPEDTAVYYCAKRVVRYGKRMGYWGQGTQVTVSS,high polyreactivity
19,QVQLVESGGGLVQAGGSLRLSCAASGSTSLYNMGWYRQAPGKERELVAAIDSGSTNYADSVKGRFTISRDNAKNTVYLQMNSLKPEDTAVYYCAADGTNIGVYDRASYRDDYWGQGTQVTVSS,low polyreactivity
20,QVQLVESGGGLVQAGGSLRLSCAASGSTSNIYGMGWYRQAPGKERELVAGISRRGSSTYYADSVKGRFTISRDNAKNSVYLHMNSLKPEDTAVYYCNTRSGGYKHRYDYWGQGTQVTVSS,high polyreactivity
21,QVQLVESGGGLVQAGGSLRLSCAASGSTSPINAMGWYRQAPGKERELVAVISSSGGLTYYADSVKGRFTISRDNAKNTVYLQMNSLKPEDTAVYYCAKRFSRRQPDYDYGGQGTQVTVSS,high polyreactivity
22,QVQLVESGGGLVQAGGSLRLSCAASGSTSQSNAMGWYRQAPGKERELVAAISWSGTSTYYADSVKGRFTISRDNAKNTVYLQMNSLNPEDSAVYYCAADYIFDYDYWGQGTQVTVSS,low polyreactivity

row,Sequence,polyreactivity (PSR sort gate)
1,QVQLVESGGGLVQAGGSLRLSCAASGSTSQYNAMGWYRQAPGKERELVAAISWSGTSTYYADSVKGRFTISRDNAKNTVYLQMNSLKPEDTAVYYCAADYIFDYDYWGQGTQVTVSS,low polyreactivity
2,QVQLVESGGGLVQAGGSLRLSCAASGSTSRHNTMGWYRQPPGKERELVAAISGGGTTYYADSVKGRFTISRDNAKNTVYLQMNSLKPEDTAVYYCAAAFWGDYASSYRSGLDYWGQGTQVTVSS,low polyreactivity
3,QVQLVESGGGLVQAGGSLRLSCAASGSTSRIYAMGWYRQAPGKERELVAAITRSGGSTYYADSVKGRFTISRDNAKNTVYLQMNSLKPEDTAVYYCAADYRSHSRYRYDKVDYWGQGTQVTVSS,high polyreactivity
4,QVQLVESGGGLVQAGGSLRLSCAASGSTSRYNVMGWSRQPPGKERELVAAISSRGVSTYYADSVKGRFTISRDNAKNTVYLQMNSLKPEDTAVYYCAALYGGPSHYGYWGQGTQVTVSS,high polyreactivity
5,QVQLVESGGGLVQAGGSLRLSCAASGSTSRYYDMGWYRQAPGKERELVATITISGITNYADSLKGRFTISRDNAKNTVYLQMNSLKPEDTAVYYCATVGPWPGEYDYWGQGTQVTVSS,low polyreactivity
6,QVQLVESGGGLVQAGGSLRLSCAASGSTSSNNAMGWYRQAPGKERELVADISTNGDSTSYADSVKGRFTISRDNAKNTVYLQMNSLKPEDTAVYYCNKDFVYPDDDGLFDYWGQGTQVTVSS,low polyreactivity
7,QVQLVESGGGLVQAGGSLRLSCAASGSTSTLYAMGWYRQAPGKERELVAAISKSGGRTYYADSVKGRFTISRDNAKNTVYLQMNSLKPEDTAVYYCAALAVYPRRFDYWGQGTQVTVSS,high polyreactivity
8,QVQLVESGGGLVQAGGSLRLSCAASGSTSVTNAMGWYRQAPGKEREFVATINYSGTSTYYADSVKGRFTISRDNAKNTVYLLMNSLKPEDTAVYYCNKTFVRGVHGVYLPITSYDYWAQGTQVTVSS,low polyreactivity
9,QVQLVESGGGLVQAGGSLRLSCAASGSTSYDNSMGWNRKAPGKERELVAAITSDGGSTYYADSVKGRFTISRDKAKNTLYLQMNSLKPEDTAVYYCSADVVHQEWVYVYGGRDDYWGQGTQVTVSS,low polyreactivity
10,QVQLVESGGGLVQAGGSLRLSCAASGSTSYNAMGWYRQAPGKERELVAAISDGGGSTYYADSVKGRFTISRDNAKNTVYLQMNSLKPEDTAVYYCAADTITGDGYWGQGTQVTVSA,low polyreactivity
11,QVQLVESGGGLVQAGGSLRLSCAASGSTSYRYAMGWYRQAPGKERELVAGITRSGGSTYYADSVKGRFTISRDNAKNTVYLQMNSLKPEDTAVYYCAAYYSRQYVGYGYWGQGTQVTVSS,high polyreactivity
12,QVQLVESGGGLVQAGGSLRLSCAASGSTSYVYAMGWYRQAPGKERELVAAISNTGNTNYADSVKGRFTISRDNAKNTVYLQMNSLKPEDTAVYYCNADRRGENDWHERDYWGQGTQVTVSS,low polyreactivity
13,QVQLVESGGGLVQAGGSLRLSCAASGSTVAYYAMGWYRQAPGKERELVAAITIDGRTSYADSVKGRFTISRDNAKNTVYLQMNSLKREDTAVYYCARGYFPYGYPWRWGYDRFDYWGQGTQVTVSS,low polyreactivity
14,QVQLVESGGGLVQAGGSLRLSCAASGSTVRGYAKGWYRQAPGKERELGAAITWSGGTTYYADSVKGRFTISRDNAKTTVYLQMNSLKPEDTAVYYCAAQNWDSDPYDYWGQATQVTVSS,low polyreactivity
15,QVQLVESGGGLVQAGGSLRLSCAASGSTVSDNAMGWYRQAPGKERELVAAINWGGSNTYYADSVKGRFTISRDNAKNTVYLQMNSLKPEDTAVYYFNADIPRRTNRHYLYDYWGQGTQVTVSS,low polyreactivity
16,QVQLVESGGGLVQAGGSLRLSCAASGSTVSSNAMGWFRLAPGQERELVAAIDRGGSTYYADSVKGRFTISRDNAKNTVYLQMNSRKPEDTAVYYCNADYYHLNSGMYYWGQGTQVTVSS,low polyreactivity
17,QVQLVESGGGLVQAGGSLRLSCAASGSTVVRYGMGSYRQAPGKERELVAVISRSGGSTYYADSVKARFTISRDNAKNTVFLQMNSLKPEDTAVYYCAITRYGNPNSGGVGYWGQGTQVTVSS,high polyreactivity
18,QVQLVESGGGLVQAGGSLRLSCAASGSTYANAMGWYRQAPGKERELVAAITDNGGRTYYADSVKGRFTISRDNEKNNVYLQMNSLKPEDTAVYYCAARSSVWGQVTQVTVSS,low polyreactivity
19,QVQLVESGGGLVQAGGSLRLSCAASGSTYDDNAMGWYRQAPRKERELVAGISTNGGSTSYADSVKGRFTISRDNAKNTVYLQMNSLYPEDTAVYYCATGLYVQFDYWGQGTQVTVSS,low polyreactivity
20,QVQLVESGGGLVQAGGSLRLSCAASGSTYGYAMGWYRQAPGKERELVAAISSSGGRTYYADSVKGRFTISRDNAKNTVYLQMNSLKPEDTAVYYCAAGGFSQHGHGYWGQGTQVTVSS,high polyreactivity
21,QVQLVESGGGLVQAGGSLRLSCAASGSTYHQYTMGWYRQAPRKERELVSTINNGGITNYADSLKGRFTISRDNAKKTVYLQLISQNPEDTAVYYCAADYSYYGRYGRYDYWGQGTQVTVSS,low polyreactivity
